In US20110223168A1 (published 2011):
Positions count from the first letter of the chain named. Like-named read-outs stand apart in the source and are kept apart here.

Key:
human TNFα [1] = biological target: T1, human TNFα (human, UniProt P01375 77-233); test: TNF receptor assay: inhibition of TNF binding to TNFR1-Fc (ELISA)
T1 construct: Coated on plates, coupled to a CM5 chip, or added in solution (10 ng/ml) in the TNF receptor assay; the assay paragraphs often print only 'TNF'; also called TNF alpha; TAR1

human TNFα [2] = biological target: T1, human TNFα; test: as above; remark: listed apart in the source
human TNFα [3] = biological target: T1, human TNFα; test: as above; remark: listed apart in the source
human TNFα [4] = biological target: T1, human TNFα; test: cell-based or functional assay
[5] = biological target: T2, mouse serum albumin (MSA) (mouse, UniProt P07724 25-608); test: inhibition biacore: dAb premixed with MSA, binding to MSA-coated CM5 chip, Klotz plot (estimated Kd)
T2 construct: Used coated, on a CM5 chip, in solution and biotinylated (about 2 biotins per molecule); also called biotinylated MSA
Procedure: Briefly, the dAbs were tested to determine the concentration of dAb required to achieve 200 RUs of response on a biacore CM5 chip coated with a high density of MSA. Once the required concentrations of dAb had been determined, MSA antigen at a range of concentrations around the expected Kd was premixed with the dAb and incubated overnight. Binding to the MSA coated biacore chip of dAb in each of the premixes was then measured at a high flow-rate of 30 μl/minute.
The purified dAbs were then analysed by inhibition biacore to determine Kd. […] Once the required concentrations of dAb had been determined, MSA antigen at a range of concentrations around the expected Kd was premixed with the dAb and incubated overnight. Binding to the MSA coated biacore chip of dAb in each of the premixes was then measured at a high flow-rate of 30 μl/minute.

human TNFα [6] = biological target: T1, human TNFα; test: TNF receptor assay: inhibition of TNF binding to TNFR1-Fc (ELISA); remark: listed apart in the source
human TNFα [7] = biological target: T1, human TNFα; test: as above; remark: listed apart in the source

T1 sequence (P01375 77-233 limits assumed): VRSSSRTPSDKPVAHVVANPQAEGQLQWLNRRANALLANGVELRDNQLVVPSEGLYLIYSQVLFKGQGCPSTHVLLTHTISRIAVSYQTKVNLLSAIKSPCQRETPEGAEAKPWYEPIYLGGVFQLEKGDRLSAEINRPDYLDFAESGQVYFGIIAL
T2 sequence (P07724 25-608 limits assumed): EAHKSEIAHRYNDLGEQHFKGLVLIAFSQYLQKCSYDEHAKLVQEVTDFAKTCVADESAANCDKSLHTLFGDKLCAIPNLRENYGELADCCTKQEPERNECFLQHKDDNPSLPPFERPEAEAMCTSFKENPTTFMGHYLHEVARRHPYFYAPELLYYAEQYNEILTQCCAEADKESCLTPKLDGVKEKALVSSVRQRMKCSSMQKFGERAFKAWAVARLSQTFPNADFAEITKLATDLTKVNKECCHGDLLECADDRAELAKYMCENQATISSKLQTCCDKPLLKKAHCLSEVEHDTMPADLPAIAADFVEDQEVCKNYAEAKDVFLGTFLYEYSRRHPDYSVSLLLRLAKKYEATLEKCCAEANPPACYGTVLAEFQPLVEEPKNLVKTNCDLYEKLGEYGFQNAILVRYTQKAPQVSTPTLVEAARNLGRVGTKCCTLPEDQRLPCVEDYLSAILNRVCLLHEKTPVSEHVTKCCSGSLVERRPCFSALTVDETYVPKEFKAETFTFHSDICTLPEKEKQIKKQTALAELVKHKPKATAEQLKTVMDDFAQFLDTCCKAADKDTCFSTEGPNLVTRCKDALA

B1: TAR1-5-19 cys hinge dimer (other)
chain: DIQMTQSPSSLSASVGDRVTITCRASQSIDSYLHWYQQKPGKAPKLLIYSASELQSGVPSRFSGSGSGTDFTLTISSLQPEDFATYYCQQVVWRPFTFGQGTKVEIKREPKSGDKTHTCPPCP
modifications: hinge cysteines form the cystine bond(s) between the two chains
notes: Dimerises in the periplasm; FPLC purified dimer fraction tested; also called cysteine hinge linker format
Human TNFα [1]
  IC50: ~2 nM

B2: TAR1-5d4 (other)
chain: DIQMTQSPSSLSASVGDRVTITCRASQSIFMNLLWYQQKPGKAPKLLIYNASVLQSGVPSRFSGSGSGTDFTLTISSLQPEDFATYYCQQVVWRPFTFGQGTKVEIKRGGGGSGGGGSGGGGSGGGGSGGGGSDIQMTQSPSSLSASVGDRVTITCRASQSVKEFLWWYQQKPGKAPKLLIYMASNLQSGVPSRFSGSGSGTDFTLTISSLQPEDFATYYCQQKFKLPRTFGQGTKVEIKR
notes: dAb-linker-dAb dimer; also called TAR1-5 dimer 4
Human TNFα [2]
  IC50: ~3 nM

B3: TAR1-5-19d5 (other)
chain: DIQMTQSPSSLSASVGDRVTITCRASQSIDSYLHWYQQKPGKAPKLLIYSASELQSGVPSRFSGSGSGTDFTLTISSLQPEDFATYYCQQVVWRPFTFGQGTKVEIKRGGGGSGGGGSGGGGSGGGGSGGGGSDIQMTQSPSSLSASVGDRVTITCRASQSIYDALEWYQQKPGKAPKLLIYTASRLQSGVPSRFSGSGSGTDFTLTISSLQPEDFATYYCQQVMQRPVTFGQGTKVEIKR
Human TNFα [3]
  IC50: ~8 nM

B4: TAR1-5-19 5U homodimer (other)
chain: B3 chain with Y163D, D164S, A165Y, E167H, T183S, R186E, M225V, Q226W, V229F
notes: also called TAR1-5-19 homodimer with (Gly4Ser)5 linker
Human TNFα [1]
  IC50: ~2 nM
Human TNFα [4]
  CA (cell assay, ND50): ~3 nM

B5: TAR1-5d5 (other)
chain: B3 chain with D30F, S31M, Y32N, H34L, S50N, E53V
notes: dAb-linker-dAb dimer; also called TAR1-5 dimer 5
Human TNFα [2]
  IC50: ~200 nM

B6: MSA16 (other)
VL: DIQMTQSPSSLSASVGDRVTITCRASQSIIKHLKWYQQKPGKAPKLLIYGASRLQSGVPSRFSGSGSGTDFTLTISSLQPEDFATYYCQQGARWPQTFGQGTKVEIK
notes: also called clone 16; clone 21
[5]
  Kd: 200 nM

B7: MSA26 (other)
VL: B6 VL with I30Y, K31Y, G50K, R53T, G91V, A92R, R93K, W94V, Q96R
notes: also called clone 26; clone 25
[5]
  Kd: 70 nM

B8: TAR1-5-19, MSA16 cys bonded heterodimer (bispecific antibody, V domains shown)
V domain 1: DIQMTQSPSSLSASVGDRVTITCRASQSIDSYLHWYQQKPGKAPKLLIYSASELQSGVPSRFSGSGSGTDFTLTISSLQPEDFATYYCQQVVWRPFTFGQGTKVEIKR
V domain 2: DIQMTQSPSSLSASVGDRVTITCRASQSIIKHLKWYQQKPGKAPKLLIYGASRLQSGVPSRFSGSGSGTDFTLTISSLQPEDFATYYCQQGARWPQTFGQGTKVEIKR
modifications: C-terminal Cys disulphide bonded to the C-terminal Cys of the MSA16 chain ; Chain 1 pos 109 Cys and chain 2 pos 109 Cys are joined by an intermolecular disulphide bond, made by chemical coupling via dithiodipyridine activation.
notes: Made by chemical coupling via a disulphide bond; separated from monomers by cation exchange; also called disulphide bonded heterodimer of TAR1-5-19 dAb and MSA16 dAb; cys bonded TAR1-5-19, MSA16 dimer
Human TNFα [6]
  IC50: ~18 nM

B9: dAb3CH/TAR1-5CK Fab (Fab, V domains shown, not shown: large carriers)
V domain 1: DIQMTQSPSSLSASVGDRVTITCRASQSVKEFLWWYQQKPGKAPKLLIYMASNLQSGVPSRFSGSGSGTDFTLTISSLQPEDFATYYCQQKFKLPRTFGQGTKVEIKR
V domain 2: B8 V domain 1 with D30F, S31M, Y32N, H34L, S50N, E53V
notes: also called TAR1-5CK d3CH
Human TNFα [7]
  IC50: ~100 nM

B10: TAR1-5CH/dAb1 CK Fab (Fab, V domains shown, not shown: large carriers)
V domain 1: B8 V domain 1 with D30F, S31M, Y32N, H34L, S50N, E53V
V domain 2: B8 V domain 1 with D30Y, S31D, Y32A, H34E, S50T, E53R, V92M, W93Q, F96V
Human TNFα [7]
  IC50: ~90 nM

B11: TAR1-5-19CH/dAb3CK Fab (Fab, V domains shown, not shown: large carriers)
V domain 1: B8 V domain 1
V domain 2: B9 V domain 1
notes: also called TAR1-5-19CH d3CK
Human TNFα [7]
  IC50: ~3 nM

B12: dAb1 CH/TAR1-5-19CK Fab (Fab, V domains shown, not shown: large carriers)
V domain 1: B8 V domain 1 with D30Y, S31D, Y32A, H34E, S50T, E53R, V92M, W93Q, F96V
V domain 2: B8 V domain 1
notes: also called TAR1-5-19CK d1CH
Human TNFα [7]
  IC50: ~6 nM

B13: TAR1-5-19CH/dAb1 CK Fab (Fab, V domains shown, not shown: large carriers)
V domain 1: B8 V domain 1
V domain 2: B8 V domain 1 with D30Y, S31D, Y32A, H34E, S50T, E53R, V92M, W93Q, F96V
notes: also called TAR1-5-19CH d1CK
Human TNFα [7]
  IC50: ~6 nM

B14: TAR1-5-19 d6 (other)
chain: DIQMTQSPSSLSASVGDRVTITCRASQSIDSYLHWYQQKPGKAPKLLIYSASELQSGVPSRFSGSGSGTDFTLTISSLQPEDFATYYCQQVVWRPFTFGQGTKVEIKRGGGGSGGGGSGGGGSGGGGSGGGGSGGGGSGGGGSDIQMTQSPSSLSASVGDRVTITCRASQSIYDALEWYQQKPGKAPKLLIYTASRLQSGVPSRFSGSGSGTDFTLTISSLQPEDFATYYCQQVMQRPVTFGQGTKVEIKR
Human TNFα [3]
  IC50: ~10 nM

B15: TAR1-5-19 7U homodimer (other)
chain: B14 chain with Y173D, D174S, A175Y, E177H, T193S, R196E, M235V, Q236W, V239F
notes: also called TAR1-5-19 homodimer with (Gly4Ser)7 linker
Human TNFα [1]
  IC50: ~10 nM
Human TNFα [4]
  CA (cell assay, ND50): ~15 nM

B16: TAR1-5d6 (other)
chain: B14 chain with D30F, S31M, Y32N, H34L, S50N, E53V
notes: dAb-linker-dAb dimer; also called TAR1-5 dimer 6
Human TNFα [2]
  IC50: ~100 nM

B17: TAR1-5-19CYS dimer (other)
VL: DIQMTQSPSSLSASVGDRVTITCRASQSIDSYLHWYQQKPGKAPKLLIYSASELQSGVPSRFSGSGSGTDFTLTISSLQPEDFATYYCQQVVWRPFTFGQGTKVEIKRC
modifications: C-terminal Cys forms the disulphide between the two chains
notes: Dimer via the engineered C-terminal cysteine, purified by protein L and cation exchange; also called TAR1-5-19CYS disulphide dimer
Human TNFα [6]
  IC50: 0.3 to 0.8 nM

B18: TAR1-5-19 d1 (other)
chain: DIQMTQSPSSLSASVGDRVTITCRASQSIDSYLHWYQQKPGKAPKLLIYSASELQSGVPSRFSGSGSGTDFTLTISSLQPEDFATYYCQQVVWRPFTFGQGTKVEIKRGGGGSGGGGSGGGGSDIQMTQSPSSLSASVGDRVTITCRASQSIYDALEWYQQKPGKAPKLLIYTASRLQSGVPSRFSGSGSGTDFTLTISSLQPEDFATYYCQQVMQRPVTFGQGTKVEIKR
notes: TAR1-5-19 substituted for TAR1-5 in lead clone d1
Human TNFα [3]
  IC50: ~15 nM

B19: TAR1-5d1 (other)
chain: B18 chain with D30F, S31M, Y32N, H34L, S50N, E53V
notes: dAb-linker-dAb dimer; also called TAR1-5 dimer 1
Human TNFα [2]
  IC50: ~30 nM

B20: TAR1-5-19 3U homodimer (other)
chain: B18 chain with Y153D, D154S, A155Y, E157H, T173S, R176E, M215V, Q216W, V219F
notes: also called TAR1-5-19 homodimer with (Gly4Ser)3 linker
Human TNFα [1]
  IC50: ~20 nM
Human TNFα [4]
  CA (cell assay, ND50): ~30 nM

B21: TAR1-27d16 (other)
chain: DIQMTQSPSSLSASVGDRVTITCRASQSIWTKLHWYQQKPGKAPKLLIYMASSLQSGVPSRFSGSGSGTDFTLTISSLQPEDFATYYCQQWFSNPSTFGQGTKVEIKRGGGGSGGGGSGGGGSDIQMTQSPSSLSASVGDRVTITCRASQSIGPNLEWYQQKPGKAPKLLIYAASSLQSGVPSRFSGSGSGTDFTLTISSLQPEDFATYYCQQQMGRPRTFGQGTKVEIKR
notes: dAb-linker-dAb dimer; also called TAR1-27 dimer d16
Human TNFα [6]
  IC50: ~50 nM
